Results taken from patent US7351690B2, “Knockout identification of target-specific sites in peptides” (priority 2000, dated 2008).
Square brackets hold non-standard residues; d marks the D form. Ends that are not written are not given here. Nle = CCCC[C@H](N)C(=O)O

Tests used:
hMC4-R = molecular target: T1, hMC4-R (Homo sapiens, UniProt P32245); experiment: competitive inhibition binding assay, 125I-NDP-alpha-MSH, hMC4-R membranes; details: 1 μM test peptide; 0.4 nM 125I-NDP-alpha-MSH; hMC4-R membranes
T1 construct: expressed in transfected cells
T1 sequence (P32245 whole entry): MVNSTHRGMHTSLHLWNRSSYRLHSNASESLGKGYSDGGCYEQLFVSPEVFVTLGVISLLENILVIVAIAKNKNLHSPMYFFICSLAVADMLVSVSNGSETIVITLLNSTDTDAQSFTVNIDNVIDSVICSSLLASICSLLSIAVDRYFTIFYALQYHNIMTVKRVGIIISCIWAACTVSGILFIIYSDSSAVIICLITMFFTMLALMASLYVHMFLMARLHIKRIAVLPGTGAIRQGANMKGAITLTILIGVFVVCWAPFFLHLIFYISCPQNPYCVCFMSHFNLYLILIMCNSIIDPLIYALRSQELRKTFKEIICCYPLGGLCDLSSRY
Protocol: (§1) The competitive inhibition binding assay was conducted using membranes prepared from hMC3-R, hMC4-R, hMC5-R, and B-16 mouse melanoma cells (containing MC1-R) using 0.4 nM ^125I-NDP-alpha-MSH (New England Nuclear, Boston, Mass., USA) in 50 mM HEPES buffer containing 1 mM MgCl2, 2 mM CaCl2, and 5 mM KCl, at pH 7.2. The assay tube also contained a chosen concentration of the test peptide of this invention complexed to a rhenium metal ion, typically at a 1 μM concentration, for determining its efficacy in inhibiting the binding of ^125I-NDP-alpha-MSH to its receptor. Non-specific binding was measured by complete inhibition of binding of ^125I-NDP-alpha-MSH in the assay with the presence of 1 μM alpha-MSH. Incubation was for 90 minutes at room temperature, after which the assay mixture was filtered and the membranes washed three times with ice cold buffer. The filter was dried and counted in a gamma counter for remaining radioactivity bound to the membranes. 100% specific binding was defined as the difference in radioactivity (cpm) bound to cell membranes in the absence and presence of 1 μM alpha-MSH. The cpm obtained in presence of test compounds were normalized with respect to 100% specific binding to determine the percent inhibition of ^125I-NDP-alpha MSH binding. Each assay was conducted in triplicate and the actual mean valves are described.

hMC5-R = molecular target: T2, hMC5-R (Homo sapiens, UniProt P33032); experiment: competitive inhibition binding assay, 125I-NDP-alpha-MSH, hMC5-R membranes; details: 1 μM test peptide; 0.4 nM 125I-NDP-alpha-MSH; hMC5-R membranes
T2 construct: expressed in transfected cells
T2 sequence (P33032 whole entry): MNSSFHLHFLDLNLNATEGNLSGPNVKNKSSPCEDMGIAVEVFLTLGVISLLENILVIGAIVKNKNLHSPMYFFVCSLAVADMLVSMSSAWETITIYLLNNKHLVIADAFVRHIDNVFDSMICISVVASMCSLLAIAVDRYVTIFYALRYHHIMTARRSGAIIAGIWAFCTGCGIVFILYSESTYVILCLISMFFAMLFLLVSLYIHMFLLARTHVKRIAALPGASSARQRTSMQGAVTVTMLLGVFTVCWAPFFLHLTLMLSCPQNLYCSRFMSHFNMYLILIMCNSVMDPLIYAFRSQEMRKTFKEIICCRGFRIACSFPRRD
Protocol: as §1

MC1-R = molecular target: T3, MC1-R (Mus musculus, UniProt Q01727); experiment: competitive inhibition binding assay, 125I-NDP-alpha-MSH, B-16 mouse melanoma cell membranes; details: 1 μM test peptide; 0.4 nM 125I-NDP-alpha-MSH; B-16 mouse melanoma cell membranes
T3 construct: membranes prepared from hMC3-R, hMC4-R, hMC5-R, and B-16 mouse melanoma cells (containing MC1-R); endogenous in cells; host or cells: B-16 mouse melanoma cells (membranes)
T3 sequence (Q01727 whole entry): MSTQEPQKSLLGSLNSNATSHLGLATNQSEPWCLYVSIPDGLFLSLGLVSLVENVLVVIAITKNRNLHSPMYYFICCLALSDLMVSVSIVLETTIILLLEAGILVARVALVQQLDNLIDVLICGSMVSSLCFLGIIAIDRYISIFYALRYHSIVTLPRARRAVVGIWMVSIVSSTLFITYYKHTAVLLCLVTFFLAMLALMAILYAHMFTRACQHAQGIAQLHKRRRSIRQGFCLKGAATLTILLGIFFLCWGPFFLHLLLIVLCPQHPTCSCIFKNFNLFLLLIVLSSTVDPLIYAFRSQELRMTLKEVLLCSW
Protocol: as §1

hMC3-R = molecular target: T4, hMC3-R (Homo sapiens, UniProt P41968); experiment: competitive inhibition binding assay, 125I-NDP-alpha-MSH, hMC3-R membranes; details: 1 μM test peptide; 0.4 nM 125I-NDP-alpha-MSH; hMC3-R membranes
T4 construct: expressed in transfected cells
T4 sequence (P41968 whole entry): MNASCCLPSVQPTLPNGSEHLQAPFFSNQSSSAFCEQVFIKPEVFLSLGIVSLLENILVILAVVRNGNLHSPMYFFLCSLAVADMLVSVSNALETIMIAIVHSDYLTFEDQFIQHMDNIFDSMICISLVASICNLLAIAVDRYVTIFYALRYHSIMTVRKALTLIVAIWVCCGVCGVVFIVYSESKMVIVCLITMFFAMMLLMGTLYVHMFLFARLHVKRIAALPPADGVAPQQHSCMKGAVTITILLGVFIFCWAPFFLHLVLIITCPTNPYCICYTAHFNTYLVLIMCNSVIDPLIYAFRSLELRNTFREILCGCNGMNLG
Protocol: as §1

| Substance | % Inhibition at 1 μM at Melanocortin Receptor 4 (hMC4-R) | % Inhibition at 1 μM at Melanocortin Receptor 5 (hMC5-R) | % Inhibition at 1 μM at Melanocortin Receptor 1 (MC1-R) | % Inhibition at 1 μM at Melanocortin Receptor 3 (hMC3-R) |
| --- | --- | --- | --- | --- |
| Ac-Ser-Tyr-Ser-Nle-Glu-His-Phe-Arg-Trp-Gly-Lys-Cys-Pro-Val-NH2 (Ac-SYS[Nle]EHFRWGKCPV-NH2; not fully specified (bridges); printed as Ac-Ser-Tyr-Ser-Nle-Glu-His-Phe-Arg-Trp-Gly-Lys-Cys-Pro-Val-NH2; numbers in words are those of the source; also: oxorhenium(V) N3S1 chelate (Re(V)=O)) [1-3] | 0% | 12% | 87% | 0% |
| Ac-Ser-Tyr-Ser-Nle-Glu-His-Phe-Arg-Trp-Gly-Lys-D-Cys-Pro-Val-NH2 (Ac-SYS[Nle]EHFRWGK[dC]PV-NH2; not fully specified (bridges); printed as Ac-Ser-Tyr-Ser-Nle-Glu-His-Phe-Arg-Trp-Gly-Lys-D-Cys-Pro-Val-NH2; numbers in words are those of the source; also: oxorhenium(V) N3S1 chelate (Re(V)=O)) [2-3] | 25% | 38% | 91% | 41% |
| Ac-Ser-Tyr-Ser-Nle-Glu-His-Phe-Arg-Trp-Gly-Lys-Gly-Cys-Val-NH2 (Ac-SYS[Nle]EHFRWGKGCV-NH2; not fully specified (bridges); printed as Ac-Ser-Tyr-Ser-Nle-Glu-His-Phe-Arg-Trp-Gly-Lys-Gly-Cys-Val-NH2; numbers in words are those of the source; also: oxorhenium(V) N3S1 chelate (Re(V)=O)) [1-2] | 0% | 37% | 87% | 6% |
| Ac-Ser-Tyr-Ser-Nle-Glu-His-Phe-Arg-Trp-Gly-Lys-Gly-D-Cys-Val-NH2 (Ac-SYS[Nle]EHFRWGKG[dC]V-NH2; not fully specified (bridges); printed as Ac-Ser-Tyr-Ser-Nle-Glu-His-Phe-Arg-Trp-Gly-Lys-Gly-D-Cys-Val-NH2; numbers in words are those of the source; also: oxorhenium(V) N3S1 chelate (Re(V)=O)) [2-2] | 28% | 32% | 93% | 26% |
| Ac-Ser-Tyr-Ser-Nle-Glu-His-Phe-Arg-Trp-Gly-Lys-Gly-Val-Cys-NH2 (Ac-SYS[Nle]EHFRWGKGVC-NH2; not fully specified (bridges); printed as Ac-Ser-Tyr-Ser-Nle-Glu-His-Phe-Arg-Trp-Gly-Lys-Gly-Val-Cys-NH2; numbers in words are those of the source; also: oxorhenium(V) N3S1 chelate (Re(V)=O)) [1-1] | 63% | 68% | 95% | 48% |
| Ac-Ser-Tyr-Ser-Nle-Glu-His-Phe-Arg-Trp-Gly-Lys-Gly-Val-D-Cys-NH2 (EHFRWGKGV; not fully specified; Ac-Ser-Tyr-Ser-Nle N-term; D-Cys; amide; printed: Glu-His-Phe-Arg-Trp-Gly-Lys-Gly-Val-) [2-1] | 46% | 53% | 97% | 72% |
| Ac-Ser-Tyr-Ser-Nle-Glu-His-Phe-Cys-Arg-Trp-Gly-Lys-Pro-Val-NH2 (Ac-SYS[Nle]EHFCRWGKPV-NH2; not fully specified (bridges); printed as Ac-Ser-Tyr-Ser-Nle-Glu-His-Phe-Cys-Arg-Trp-Gly-Lys-Pro-Val-NH2; numbers in words are those of the source; also: oxorhenium(V) N3S1 chelate (Re(V)=O)) [1-7] | 0% | 0% | 68% | 0% |
| Ac-Ser-Tyr-Ser-Nle-Glu-His-Phe-D-Cys-Arg-Trp-Gly-Lys-Pro-Val-NH2 ({Ac-Ser-Tyr-Ser-Nle-Glu-H2N}-F[dC]RWGKPV-NH2; numbers in words are those of the source; also: oxorhenium(V) N3S1 chelate via Cys (Re(V)=O)) [2-7] | 6% | 0% | 54% | 0% |
| Tyr-Val-Cys-Nle-Gly-His-D-Phe-Arg-Trp-Asp-Arg-Phe-NH2 (YVC[Nle]GH[dF]RWDRF-NH2; also: Re complex) [3-11] | 82% | 92% | 95% | 85% |
| Tyr-Val-Cys-Nle-Gly-His-Phe-Arg-Trp-Asp-Arg-Phe-NH2 (YVC[Nle]GHFRWDRF-NH2; not fully specified (bridges); printed as Tyr-Val-Cys-Nle-Gly-His-Phe-Arg-Trp-Asp-Arg-Phe-NH2; numbers in words are those of the source; also: oxorhenium(V) N3S1 chelate (Re=O) with Cys) [4-10] | 2% | 17% | 28% | 10% |
| Tyr-Val-Nle-Cys-Gly-His-D-Phe-Arg-Trp-Asp-Arg-Phe-NH2 (YV[Nle]CGH[dF]RWDRF-NH2; not fully specified (bridges); printed as Tyr-Val-Nle-Cys-Gly-His-D-Phe-Arg-Trp-Asp-Arg-Phe-NH2; numbers in words are those of the source; also: oxorhenium(V) N3S1 chelate complex (Re=O)) [3-10] | 80% | 86% | 84% | 78% |
| Tyr-Val-Nle-Cys-Gly-His-Phe-Arg-Trp-Asp-Arg-Phe-NH2 (YV[Nle]CGHFRWDRF-NH2; not fully specified (bridges); printed as Tyr-Val-Nle-Cys-Gly-His-Phe-Arg-Trp-Asp-Arg-Phe-NH2; numbers in words are those of the source; also: oxorhenium(V) N3S1 chelate (Re=O) with Cys) [4-9] | 4% | 43% | 1% | 19% |
| Tyr-Val-Nle-Cys-His-D-Phe-Arg-Trp-Asp-Arg-Phe-NH2 (YV[Nle]CH[dF]RWDRF-NH2; not fully specified (bridges); printed as Tyr-Val-Nle-Cys-His-D-Phe-Arg-Trp-Asp-Arg-Phe-NH2; numbers in words are those of the source; also: oxorhenium(V) N3S1 chelate complex (Re=O)) [5-8] | 86% | 98% | 95% | 89% |
| Tyr-Val-Nle-Gly-Cys-D-Phe-Arg-Trp-Asp-Arg-Phe-NH2 (YV[Nle]GC[dF]RWDRF-NH2; not fully specified (bridges); printed as Tyr-Val-Nle-Gly-Cys-D-Phe-Arg-Trp-Asp-Arg-Phe-NH2; numbers in words are those of the source; also: oxorhenium(V) N3S1 chelate complex (Re=O)) [5-7] | 69% | 88% | 89% | 70% |
